One experiment relates to E. coli 0111. Briefly: Time course of E. coli growth in the presence of LF polypeptides. It is filed as cell-based. The following applies: 50 μM, seven hour time course, OD 600 nm. How it is done:
To investigate whether regions of the molecule involved in GAG binding activity of the 6 kDa LF polypeptide (generated from pepsin digestion) are also involved in the antimicrobial activity of the 6 kDa polypeptide of the present invention, polypeptides of various lengths corresponding to the N-terminal amino acid sequence of LF were tested for the ability to inhibit the growth of E. coli 0111. Overnight cultures were grown over a seven hour time course in the presence of 50 μM of either LF, a 33-mer corresponding to amino acids 1-33 of LF, a 26-mer corresponding to […] of LF, a 27-mer corresponding to amino acids 1-27 of LF. […] This is consistent with LF and the 33-mer inhibiting bacterial growth via different mechanisms. […] The failure of the 26-mer and the 27-mer to inhibit culture growth emphasizes the importance of retaining both clusters of basic residues, at the termini of the 33-mer, for the antimicrobial functionality of polypeptides derived from the N-terminal LF sequence.
Time course of E. coli growth in the presence of LF polypeptides. E. coli cells, clinical isolate strain 0111, were obtained from ATCC. […] Culture growth was monitored spectrophotometrically by measuring optical density at 600 nm at each indicated time point.

The test system of experiment [1] is lipid A from E. coli 0113. Briefly: LAL assay, neutralization of lipid A endotoxin activity (FIG. 6). Type of experiment: biochemical. Particulars: lipid A 30 ng/ml. How it is done: The lipid A region of the LPS molecule is primarily responsible for the inflammatory and toxic effects of LPS. When LPS is released from the microbe, the lipid A portion may become more accessible. The following assays were performed to determine the potential of various amino-terminal LF polypeptides to neutralize the endotoxic activity of the lipid A portion of LPS. LF, the 6 kDa fragment of LF, LF-33, LF-27, and polymyxin B were each tested for the ability to neutralize the endotoxin activity of lipid A from E. coli 0113 (30 ng/ml), using a LAL assay. […] The endotoxin activity of the smaller fragments of LF indicate that endotoxin-neutralizing activity of these small polypeptides is masked when in the context of the intact LF molecule.

B1: LF: 80 kDa iron-binding glycoprotein, purified from human colostrum (protein, UniProt P02788 20-710, looked up)
Lactotransferrin: GRRRSVQWCAVSQPEATKCFQWQRNMRKVRGPPVSCIKRDSPIQCIQAIAENRADAVTLDGGFIYEAGLAPYKLRPVAAEVYGTERQPRTHYYAVAVVKKGGSFQLNELQGLKSCHTGLRRTAGWNVPIGTLRPFLNWTGPPEPIEAAVARFFSASCVPGADKGQFPNLCRLCAGTGENKCAFSSQEPYFSYSGAFKCLRDGAGDVAFIRESTVFEDLSDEAERDEYELLCPDNTRKPVDKFKDCHLARVPSHAVVARSVNGKEDAIWNLLRQAQEKFGKDKSPKFQLFGSPSGQKDLLFKDSAIGFSRVPPRIDSGLYLGSGYFTAIQNLRKSEEEVAARRARVVWCAVGEQELRKCNQWSGLSEGSVTCSSASTTEDCIALVLKGEADAMSLDGGYVYTAGKCGLVPVLAENYKSQQSSDPDPNCVDRPVEGYLAVAVVRRSDTSLTWNSVKGKKSCHTAVDRTAGWNIPMGLLFNQTGSCKFDEYFSQSCAPGSDPRSNLCALCIGDEQGENKCVPNSNERYYGYTGAFRCLAENAGDVAFVKDVTVLQNTDGNNNEAWAKDLKLADFALLCLDGKRKPVTEARSCHLAMAPNHAVVSRMDKVERLKQVLLHQQAKFGRNGSDCPDKFCLFQSETKNLLFNDNTECLARLHGKTTYEKYLGPQYVAGITNLKKCSTSPLLEACEFLRK
In the case of B1, the “growth of E. coli 0111 cultures” value in the experiment on E. coli 0111 is “transient growth suppressing effect”. In experiment [1], the “lipid A neutralizing activity” value is reported as “no appreciable lipid A neutralizing activity”.

Values taken from patent US6399570B1, “Antimicrobial/endotoxin neutralizing polypeptide” (priority 1999, dated 2002).
